Data published in the supplement of paper PMC7877785.
± gives the uncertainty stated by the source.

Assay: self-splicing fitness, log relative to wild type (ln ratio); higher = more splicing; Tetrahymena group I intron in knt gene, E. coli kanamycin selection, DiMSum; sequences stand for … in CUCUCU…GGAGGGAAAAGUUAUCAGGCAUGCACCUGGUAGCUAGUCUUUAAACCAAUAGAUUGCAUCGGUUUAAAAGGCAAGACCGUCAAAUUGCGGGAAAGGGGUCAACAGCCGUUCAGUACCAAGUCUCAGGGGAAACUUUGAGAUGGCCUUGCAAAGGGUAUGGUAAUAAGCUGACGGACAUGGUCCUAACCACGCAGCCAAGUCCUAAGUCAACAGAUCUUCUGUUGAUAUGGAUGCAGUUCACAGACUAAAUGUCGGUCGGGGAAGAUGUAUUCUUCUCAUAAGAUAUAGUCGGACCUCUCCUUAAUGGGAGCUAGCGGAUGAAGUGAUGCAACACUGGAGCCGCUGGGAACUAAUUUGUAUGCGAAAGUAUAUUGAUUAGUUUUGGAGUACUCGUGGUCG
How it was run: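 Fitness was computed with DiMSum as the error-weighted combination of replicate fold changes, kanamycin versus none, each normalised to wild type. The library randomised all eight intron nucleotides of the P1ex region, with the intron placed in the knt kanamycin-resistance gene on pET-22b(+) in E. coli BL21(DE3). Six replicate transformations were grown overnight at 37°C or 30°C on LB agar with or without 25 μg/mL kanamycin, plus 100 μg/mL carbenicillin, 50 μM IPTG and 0.2% rhamnose. Pooled colonies were amplicon-sequenced on an Illumina HiSeq 2500.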

| Sequence | self-splicing fitness (ln) (30 °C) | self-splicing fitness (ln) (37 °C) |
| --- | --- | --- |
| GGUGAGCAAUAUUACGGCUC | -1.94 ± 0.24 | -0.104 ± 0.3 |
| GGUGAGCAAUAUUACGGGAG | -1.79 ± 0.28 | -2.68 ± 0.48 |
| GGUGAGCAAUAUUACGGGGG | -3.41 ± 0.43 | – |
| GGUGAGCAAUAUUACGGGGU | -3.31 ± 0.17 | -2.94 ± 0.26 |
| GGUGAGCAAUAUUACGGGUG | -3.18 ± 0.26 | -2.7 ± 0.27 |
| GGUGAGCAAUAUUACGGGUU | – | -2.59 ± 0.36 |
| GGUGAGCAAUAUUACGGUCC | -1.66 ± 0.13 | -0.523 ± 0.15 |
| GGUGAGCAAUAUUACGUACU | -1.89 ± 0.14 | -1.75 ± 0.17 |
| GGUGAGCAAUAUUACGUAGA | -3.01 ± 0.33 | -2.19 ± 0.29 |
| GGUGAGCAAUAUUACGUAGG | -3.15 ± 0.27 | -2.07 ± 0.32 |
| GGUGAGCAAUAUUACGUAUC | -1.77 ± 0.1 | -0.807 ± 0.12 |
| GGUGAGCAAUAUUACGUGCC | -3.67 ± 0.33 | -2.67 ± 0.38 |
| GGUGAGCAAUAUUACGUGCU | -1.66 ± 0.18 | -1.74 ± 0.37 |
| GGUUAGCAAUAUUACGAAAC | – | -1.68 ± 0.41 |
| GGUUAGCAAUAUUACGAAGU | -0.268 ± 0.2 | -0.745 ± 0.18 |
| GGUUAGCAAUAUUACGACAC | 0.342 ± 0.2 | -0.137 ± 0.24 |
| GGUUAGCAAUAUUACGACCA | -1.69 ± 0.32 | -0.631 ± 0.3 |
| GGUUAGCAAUAUUACGAUAA | -0.985 ± 0.12 | -0.35 ± 0.14 |
| GGUUAGCAAUAUUACGAUCA | -0.0432 ± 0.15 | -0.342 ± 0.13 |
| GGUUAGCAAUAUUACGAUUC | -0.602 ± 0.11 | -0.718 ± 0.17 |
| GGUUAGCAAUAUUACGCACU | -2.48 ± 0.28 | -2.32 ± 0.25 |
| GGUUAGCAAUAUUACGCAUC | -0.527 ± 0.33 | -0.989 ± 0.38 |
| GGUUAGCAAUAUUACGCGGG | -3.71 ± 0.22 | -1.23 ± 0.12 |
| GGUUAGCAAUAUUACGGCAC | -0.473 ± 0.15 | -0.251 ± 0.18 |
| GGUUAGCAAUAUUACGGUCA | 0.387 ± 0.31 | -1.03 ± 0.12 |

| Sequence | self-splicing fitness (ln) (30 °C) | self-splicing fitness (ln) (37 °C) |
| --- | --- | --- |
| GGUUAGCAAUAUUACGUAGU | -1.03 ± 0.097 | -0.417 ± 0.12 |
| GGUUAGCAAUAUUACGUGUA | -1.7 ± 0.13 | -0.817 ± 0.1 |
| GGUUAGCAAUAUUACGUUGC | -2.41 ± 0.22 | -1.12 ± 0.42 |
| GUAAAGCAAUAUUACGAAGA | -1.9 ± 0.1 | -1.03 ± 0.12 |
| GUAAAGCAAUAUUACGACCG | -0.799 ± 0.43 | -0.23 ± 0.36 |
| GUAAAGCAAUAUUACGAGAA | -2.06 ± 0.14 | -0.181 ± 0.21 |
| GUAAAGCAAUAUUACGAUAA | -0.115 ± 0.076 | 0.632 ± 0.11 |
| GUAAAGCAAUAUUACGAUGU | -0.534 ± 0.081 | -0.0801 ± 0.1 |
| GUAAAGCAAUAUUACGCACC | -0.664 ± 0.49 | – |
| GUAAAGCAAUAUUACGCCUC | -0.782 ± 0.12 | 0.463 ± 0.16 |
| GUAAAGCAAUAUUACGCGCC | -2.22 ± 0.2 | -1.03 ± 0.23 |
| GUAAAGCAAUAUUACGGAAG | -2.86 ± 0.18 | -1.36 ± 0.15 |
| GUAAAGCAAUAUUACGGAGG | -3.29 ± 0.37 | -2.45 ± 0.38 |
| GUAAAGCAAUAUUACGGAGU | -3.08 ± 0.26 | -2.81 ± 0.29 |
| GUAAAGCAAUAUUACGGGCA | -0.131 ± 0.13 | -0.0319 ± 0.15 |
| GUAAAGCAAUAUUACGGGGG | -3.31 ± 0.18 | -2.87 ± 0.31 |
| GUAAAGCAAUAUUACGGUAA | -1.09 ± 0.086 | -0.336 ± 0.11 |
| GUAAAGCAAUAUUACGUAGU | -2.42 ± 0.12 | -1.36 ± 0.18 |
| GUAAAGCAAUAUUACGUCCG | -0.907 ± 0.088 | -0.395 ± 0.14 |
| GUAAAGCAAUAUUACGUGCA | 0.139 ± 0.058 | 0.551 ± 0.093 |
| GUAAAGCAAUAUUACGUGUA | -1.44 ± 0.064 | -0.702 ± 0.087 |
| GUAAAGCAAUAUUACGUUGU | -3.6 ± 0.17 | -2.13 ± 0.19 |
| GUAAAGCAAUAUUACGUUUA | -1.08 ± 0.077 | -0.69 ± 0.11 |
| GUACAGCAAUAUUACGAAAG | -3.47 ± 0.1 | -1.04 ± 0.092 |
| GUACAGCAAUAUUACGAAGC | -1.83 ± 0.17 | -1.5 ± 0.28 |

| Sequence | self-splicing fitness (ln) (30 °C) | self-splicing fitness (ln) (37 °C) |
| --- | --- | --- |
| GUACAGCAAUAUUACGAAGG | – | -0.639 ± 0.25 |
| GUACAGCAAUAUUACGAGAU | -3.53 ± 0.16 | -2.03 ± 0.11 |
| GUACAGCAAUAUUACGAGCC | -1.6 ± 0.36 | -2.01 ± 0.46 |
| GUACAGCAAUAUUACGAUAU | -2.07 ± 0.1 | -1.48 ± 0.13 |
| GUACAGCAAUAUUACGAUGA | -1.87 ± 0.097 | -0.889 ± 0.11 |
| GUACAGCAAUAUUACGAUGU | -1.33 ± 0.081 | 0.106 ± 0.088 |
| GUACAGCAAUAUUACGCACA | -1.52 ± 0.11 | -0.471 ± 0.11 |
| GUACAGCAAUAUUACGCCAG | -3.75 ± 0.24 | -2.32 ± 0.45 |
| GUACAGCAAUAUUACGCCUC | -0.924 ± 0.14 | -0.219 ± 0.16 |
| GUACAGCAAUAUUACGCCUU | -1.23 ± 0.095 | -0.531 ± 0.11 |
| GUACAGCAAUAUUACGCGUC | -3.1 ± 0.21 | -0.709 ± 0.14 |
| GUACAGCAAUAUUACGCUCC | -1.81 ± 0.29 | -0.404 ± 0.23 |
| GUACAGCAAUAUUACGCUUA | -1.58 ± 0.08 | -1.03 ± 0.091 |
| GUACAGCAAUAUUACGGAAA | -2.77 ± 0.22 | -2.72 ± 0.25 |
| GUACAGCAAUAUUACGGAAC | -3.3 ± 0.19 | -0.753 ± 0.17 |
| GUACAGCAAUAUUACGGAGC | -3.06 ± 0.14 | -2.17 ± 0.15 |
| GUACAGCAAUAUUACGGAUU | -2.88 ± 0.11 | -0.823 ± 0.084 |
| GUACAGCAAUAUUACGGCAA | -1.59 ± 0.15 | -1.32 ± 0.12 |
| GUACAGCAAUAUUACGGUAC | -4.08 ± 0.43 | -2.8 ± 0.26 |
| GUACAGCAAUAUUACGGUCC | -0.203 ± 0.11 | -0.766 ± 0.13 |
| GUACAGCAAUAUUACGUAAU | -1.66 ± 0.087 | -0.807 ± 0.11 |
| GUACAGCAAUAUUACGUCUG | -2.04 ± 0.23 | -2.09 ± 0.18 |
| GUACAGCAAUAUUACGUGCC | -2.93 ± 0.13 | -2.54 ± 0.22 |
| GUACAGCAAUAUUACGUUCA | -1.51 ± 0.15 | -0.775 ± 0.17 |
| GUAGAGCAAUAUUACGAAAG | -1.56 ± 0.32 | – |

| Sequence | self-splicing fitness (ln) (30 °C) | self-splicing fitness (ln) (37 °C) |
| --- | --- | --- |
| GUAGAGCAAUAUUACGAAUG | -3.89 ± 0.3 | -2.16 ± 0.21 |
| GUAGAGCAAUAUUACGAGUA | -3.5 ± 0.28 | -1.69 ± 0.29 |
| GUAGAGCAAUAUUACGAGUG | -1.59 ± 0.18 | -2.1 ± 0.21 |
| GUAGAGCAAUAUUACGAUAU | -0.731 ± 0.088 | 0.237 ± 0.12 |
| GUAGAGCAAUAUUACGCAUU | -2.45 ± 0.18 | -0.619 ± 0.25 |
| GUAGAGCAAUAUUACGCGUG | -1.18 ± 0.11 | -0.777 ± 0.18 |
| GUAGAGCAAUAUUACGCUAC | -2.54 ± 0.25 | -2.15 ± 0.34 |
| GUAGAGCAAUAUUACGCUUU | -2.36 ± 0.19 | -2 ± 0.23 |
| GUAGAGCAAUAUUACGGAGA | -2.58 ± 0.3 | – |
| GUAGAGCAAUAUUACGGAUA | – | -0.969 ± 0.41 |
| GUAGAGCAAUAUUACGGCCG | -0.867 ± 0.16 | 0.266 ± 0.21 |
| GUAGAGCAAUAUUACGGCGA | -1.87 ± 0.13 | -0.23 ± 0.16 |
| GUAGAGCAAUAUUACGGGCU | -2.37 ± 0.3 | -1.89 ± 0.41 |
| GUAGAGCAAUAUUACGGUCG | -2.63 ± 0.19 | -1.8 ± 0.19 |
| GUAGAGCAAUAUUACGGUGA | -2.14 ± 0.13 | -1.09 ± 0.2 |
| GUAGAGCAAUAUUACGUAAA | -4.18 ± 0.36 | -1.4 ± 0.27 |
| GUAGAGCAAUAUUACGUCAU | -1.65 ± 0.1 | -1.36 ± 0.11 |
| GUAGAGCAAUAUUACGUCGU | -0.814 ± 0.084 | -0.0553 ± 0.11 |
| GUAGAGCAAUAUUACGUGAC | -2.42 ± 0.16 | -1.31 ± 0.19 |
| GUAGAGCAAUAUUACGUGCG | -1.13 ± 0.081 | 0.0284 ± 0.12 |
| GUAGAGCAAUAUUACGUGGA | – | -3.25 ± 0.3 |
| GUAGAGCAAUAUUACGUGUC | -1.68 ± 0.094 | -0.37 ± 0.13 |
| GUAUAGCAAUAUUACGAAUU | -3.2 ± 0.22 | -1.13 ± 0.18 |
